Here are results for 23 sequences from the DeepSol protein solubility set.

The nature of the data set: soluble on expression in E. coli; label from the status in PepcDB or PDB records.
As for “MGSDKIHHHHHHMTEQNQKQLGNTLWSIADQLRGAMDADDFRDYMLSFLFLRYLSDNYETAAKKELGRDYPDVGGDARKVPLALWYANNVDDIPAFEKQMRRKVHYVIQPAHLWNSIANLARTQNPDLLDTLQAGFKYIETESFESTFQGLFSEIDLSSPKLGKSYSDRNAKLCTIIQKIAEGLAAFSTNIDALGDAYEYLIGQFAAGSGKKAGEFYTPQQISDILSAIVTLDSQEPKTGTKKRLDSVLDFACGSGSLLLNVRKKVNQAGGSIGKIYGQEKNITTYNLARMNMLLHGVKDTEFEIFHGDTLLNEWDMLREQNPARKPSFDAVVANPPFSYRWEPTDALADDVRFKSHGLAPKSAADFAFLLHGFHYLKDEGVMAIILPHGVLFRGGAEERIRTKLLKDGHIDTVIGLPANLFYSTGIPVCILVLKKCKKPDDVLFINAAEHFVKGKRQNHLSDEHIAKIIETYQFRTEEPRYARRVDMAEIEKNDFNLNISRYISTAVDEEEIDLTATHANLVNIEKAIQQATAKHNEFLKELGMPLLP”, the “soluble on expression in E. coli” value is given as “not soluble”.

For “MRTLFLELMEQYVVAKNPKLMLRRSETVVERMLSNWMSICLYQYLKDSAGEPLYKLFKAIKHQVEKGPVDAVQKKAKYTLNDTGLLGDDVEYAPLTVSVIVQDEGIDAIPVKVLNCDTISQVKEKIIDQVYRTQPCSCWPKPDSVVLEWRPGSTAQILSDLDLTSQREGRWKRINTLMHYNVRDGATLILSKVGVSQQPEDSQQDLPGERHALLEEENRVWHLVRPTDEVDEGKSKRGSMKEKERTKAITEIYLTRLLSVKGTLQQFVDNFFQSVLAPGHAVPPAVKYFFDFLDEQAEKHDIRDEDTIHIWKTNSLPLRFWVNILKNPHFIFDVHVHEVVDASLSVIAQTFMDACTRTEHKLSRDSPSNKLLYAKEISTYKKMVEDYYKGIRQMVQVSDQDMNTHLAEISRAHTDSLNTLVALHQLYQYTQKYYDEIINALEEDPAAQKMQLAFRLQQIAAALENKVTDL”, the “soluble on expression in E. coli” value is recorded as “not soluble”. With “MNFKLNNTLSNEINTLIIGIPEHLNQLERISFNHIDITESLERLKHQHIIGSKVGKIYTTAFDVQDQTYRLITVGLGNLKTRSYQDMLKIWGHLFQYIKSEHIEDTYLLMDSFISKYDQLSDVLMACGIQSERATYEFDHYKSSKKAPFKTNLNLISESLIELDFIHEGISIGQSINLARDFSNMPPNVLTPQTFAEDIVNHFKNTKVKVDVKDYDTLVSEGFGLLQAVGKGSKHKPRLVTITYNGKDKDEAPIALVGKGITYDSGGYSIKTKNGMATMKFDMCGAANVVGIIEAASRLQLPVNIVGVLACAENMINEASMKPDDVFTALSGETVEVMNTDAEGRLVLADAVFYANQYQPSVIMDFATLTGAAIVALGDDKAAAFESNSKVILNDILQISSEVDEMVFELPITATERASIKHSDIADLVNHTNGQGKALFAASFVTHFSGQTPHIHFDIAGPATTNKASYNGPKGPTGFMIPTIVQWLKQQ”, the “soluble on expression in E. coli” value was “not soluble”. For “FDGNLKRYLKSEPIPESNDGPVKVVVAENFDEIVNNENKDVLIEFYAPWCGHCKNLEPKYKELGEKLSKDPNIVIAKMDATANDVPSPYEVRGFPTIYFSPANKKLNPKKYEGGRELSDFISYLQREAT”, the “soluble on expression in E. coli” value is reported as “soluble”.

On to “MSLAEASTVETEFAARVQEFYHDQSDPIQLVVAFKALCAVKALLAAANLEEHGAKSSYFQEEFENWDLETKLWHLVEVLYLYRLAENEEVIAENQYSSISVLQENVLRQNPKLKELLIILGWLQTNSKGVDVPGSLSNTSKWSNTRQALANKDLNVLTTHGHTGETDTKLQNIDPDAPIRQACPVMAEDDLRDSQVFRTIYQLILSGQLQEAIELASSTGNHTLALILLGGTQDFIDPVLDKDFCETTMTDLIVPNKPSGAKHKLLWKQAVFKLSHQLGINKYERLIYDYLSGGDISGGLEVVGDSWENLLIIYLNKICLHVLLNALNSNESTTSIPAPPAESIDQVLNLISKGSNGAAQQSKHPLRIVMGSVMISEIGALISGVLKSLNNNFTTQKVWEEDYLVRVMAHLGLFAHAVGSQVSANDLTQLLTLYVQRLSARGFTDLVPLYLSFIPDDSDAREYYSKFLSSITDPSERTKQLQLVRKLGIDSNGDEERMANVLRRTVERVMADTEAEGHHHHHH”, for which the “soluble on expression in E. coli” value was “soluble”. The value for “MEHRPVLETESNLVITLVADIVAAYVSNNSIRPTEVPSLIADVHAAFRKAGNADLTEVEVEKQRPAVNPKRSIFPDYLICLEDGKKFKSLKRHLMTHYGMLPEEYREKWQLDSSYPMVAPNYAKARSALAKEMGLGRKSKRKKTK” was “not soluble”; that for “AHHHHHHGSKLDDSFLTLFPEEDKVYEVLLSTKSNFTPIGVRRQGRVLKFRIFEGRSFRDLEECNYAIIQVVDDTELLAGLAYNLDVKFDVTQGIKVPIRRIEGYPWVEGEVKCRIVKVKDSIGESIAKDCTLTPIYIGIEKRVPRPISRADNVLLELAVLGTRLIVKKKRGLQIKDVAQKIEELYELYRKLGGKSEIAGKIMDILRKHYL” was “soluble”; that for “MSLEGDRGQDDVLRILVATDTHLGYKADDSERGGDSFETFQEILEIGRNLKVDFLLHGGDLFDENRPSRATLYRTFCLLRKFCFGDGAVSFEVLEGAAESRGRGEGFRFGLNYLDENINVCMPIFAMHGNHDDPGEQSHLSPLDLLEAAHLINYFGRCDATDEVTIKPILIKKGQTKVAIYGVGWIRDARLHRAFNNGKVRFLVPSASAGEDSVDDWFNIMVVHQNMYKGAFGGQPAKNCIHEQMLPDFLDLAIWGHEHDCHLDLRDAPQGTFRVLQPGSSIATSLVAGEALPKHVFLLEIRGENYRVTPQRLRTVRPLLFEDVALSDLLHSRPPLAPALSGVRTPQSRVSNSGAGRNLQTAQPAEDRDVWQLLTDAVEELLSRFAREEGHHHHHH” was “soluble”.

For “TALSVLDLVMIGEGKTFADAIEESRQLARHVEQQHYSRYWIAEHHDMPGIGSAATSLVINEIANATRHIRVGAGGIMLPNHAPLVVAEQFGTLNTLHPGRIDLGLGRAPGTSGPTVRALRGAAPERDFGQDIAELRDYLADNGKRRVRGVPGAHDVPVWILGSSLFGADLAAKLGLPYAFASHFAPRYLLQAIAHYRANFQPSAQLAKPYVMVGMNLFAAASDAEADYLASSHRKWMLDLHVGRFGLLPKPQEGYLERLPDHERAVLDQVMACSVAGGPERVREGLRSLIEQTGADELMIDCRIHDPLARQRSHAYAAQ”, the “soluble on expression in E. coli” value is listed as “not soluble”. The result for “MEEKTILAQILQVLDLYAADMRKQFEALHEKFDSLQRQVQALNEKTDEMDKRIEEMDGRFERQIAQLERTVNERFERLEAKLGHIRVELVETQETVDFHSVKIAQHDRKIRHLLHAR” reads “not soluble”. The result for “MGSDKIHHHHHHMFFETTFHDATEQEASLPGWRQEYRQVSTGGYDGRTMAILLPGVEILRETISVGTEQMFSAPEGSMIFYYYPKRDRSELVRGEKATGVSGFALNWTNRIGFMDADSDLLMLVLRRDAVADEDRSRIAELVEPPLENAAFLADWLLSLLGGARQQSHPCAWGKFDGVLADVITDRFELLFQKSLVRQTPHIAQTEQIYRKIRDRIFDAPDMPHSVKSLSRDLGVSAFNLRASCQSFTQIPLDRILMMLRLNGARRDLLHARCSPRKVSDIAMDWGFFHWSRFALRYKSLFGETPSQTLKG” reads “not soluble”; that for “MRGSHHHHHHTDPALRAAFRMSEQPRTIKIYNLLAGTNEFIGEGDAYIPPHTGLPANSTDIAPPDIPAGFVAVFNSDESSWHLVEDHRGKTVYDVASGNALFISELGPLPENVTWLSPEGEFQKWNGTAWVKDTEAEKLFRIREAEETKNNLMQVASEHIAPLQDAADLEIATEEEISLLEAWKKYRVLLNRVDTSTAQDIEWPALPGLCGR”, “soluble”. As for “RQFQILLQQINMTDDTFMTYFEHGEIKKLTIHKASKSWHFHFQFKSLLPFQIYDTLTTRLTQSFAHIAKVTSSIEVQDAEVSESIVQDYWSRCIEELQGISPPIISLLNQQKPKLKGNKLIVKTKTDTEAAALKNKYSSMIQA”, the “soluble on expression in E. coli” value is “not soluble”.

Consider “MGSDKIHHHHHHMRPIQRKRVPGLNAWEARWYHGTKWVRVSSANGKSRRARRFSLMVLGGWVMERAQHNLRFTELARARAYAQAHGLRQKAVCHIVRRGTELLVFDHVPDGGAGVQVVAGGLEAGETPEQAALREAGEETGQDGFQVVGFLGSAVWLNTEHAKRELRHFVHLTAPDDLPDTWQHCADGHLFSFRWEPLHSARVDWEMDAFLPELG”, for which the “soluble on expression in E. coli” value is “not soluble”. As for “PRLWEGQDVLARWTDGLLYLGTIKKVDSAREVCLVQFEDDSQFLVLWKDISPAAL”, the “soluble on expression in E. coli” value is “soluble”.

In the case of “MAIELHGAISPQDDGSFDSKTLGTICWGDHNNVYMVIGNQTLEGKISKIDRPLLVIQKSDKNHQENGEKNATVNAVIRKKLVFKTRPRPLVLSTVV”, the “soluble on expression in E. coli” value is reported as “soluble”. On to “MACLSPSQLQKFQQDGFLVLEGFLSAEECVAMQQRIGEIVAEMDVPLHCRTEFSTQEEEQLRAQGSTDYFLSSGDKIRFFFEKGVFDEKGNFLVPPEKSINKIGHALHAHDPVFKSITHSFKVQTLARSLGLQMPVVVQSMYIFKQPHFGGEVSPHQDASFLYTEPLGRVLGVWIAVEDATLENGCLWFIPGSHTSGVSRRMVRAPVGSAPGTSFLGSEPARDNSLFVPTPVQRGALVLIHGEVVHKSKQNLSDRSRQAYTFHLMEASGTTWSPENWLQPTAELPFPQLYT”, for which the “soluble on expression in E. coli” value is listed as “soluble”.

In the case of “GMSEPVFPTPEAAEDAFYAAFEARSLDDMMAVWARDDHVACIHPLAAPLNGRAAVAAGWRSMFGAAGRFRLQVKAVHEIRQADHVIRIVDEFLTIGDETAPRPAILATNVYRREADGWRMVLHHASPLQVGAKAGADTPPVVFH”, the “soluble on expression in E. coli” value was “soluble”. For the sequence “MNPVLKSSKLVIFDLDGTLYEGTDHFDYYANHLKQNVPQSQQLDFWRDYTAMKDGHHPVQIGKGYDVKRDYILTIDPMTISVQSVQTWDGSYVPAEEWETLYSDPVSFDFETIIAVGDGWWYPFVTAKHYGVEDCYASYVATKEYMVTDEFELTPLPGLREGLIELKATKEIVLVTNSDREDVQRLLHELHLHDVFNHIITSAKKPTRTTDIFKEVVHQYEVDMSQVVSVGDNFMNEIAQALTLGMQGIYIHPQRASEVAHDHLTVIRSVVELFKNLEHHHHHH”, the “soluble on expression in E. coli” value is on record as “soluble”.

For the sequence “MGSDKIHHHHHHMKTTLAERLKTARTAQGLSQKALGDMIGVSQAAIQKIEVGKASQTTKIVELSNALHIRPEWLANGGGPMHSDRVVRSLQESSIPPTSKWGTVSAWDNTTKLSEDEVEVPFLKDIEFACGDGRIQSEDYNGFKLRFSKATLRKVGANTDGSGVLCFPAAGDSMEPIIPDGTTVAVDTNNKRIIDGKLYAIAQEGSGNDKLKRIKQLYRKPGGLLVIHSFNRDADEEAYESEVEIIGRVFWYSVLL”, the “soluble on expression in E. coli” value is reported as “not soluble”.

On to “MSSQIRQNYSTEVEAAVNRLVNLYLRASYTYLSLGFYFDRDDVALEGVCHFFRELAEEKREGAERLLKMQNQRGGRALFQDLQKPSQDEWGTTPDAMKAAIVLEKSLNQALLDLHALGSAQADPHLCDFLESHFLDEEVKLIKKMGDHLTNIQRLVGSQAGLGEYLFERLTLKHD”, for which the “soluble on expression in E. coli” value was “soluble”.

“MAHHHHHHMERAHGAKDGGSKTLFVTVGSHQFDDLIKQIDTKDFHSFLRRAGFAKMSMQIGQGTYEPQLIYRCSGNGEESLLKRVKFFRYKKDLLKDFQKADLIVSHAGAGTTLEGLRMKKKMLIVVNDKLMGNHQLEFAEFLRSRNYLEVCECLGDLRAHVLRCLRTPAFAPFPAPRPEPFLRDLRALMDGAA”: the “soluble on expression in E. coli” value is “soluble”.

“MGSDKIHHHHHHILFELCFGLAVAQKNLGFIHNDLHSDNIMFKKCQQQFKYYQFHNKFFKVPTWCRETKVIDFARGILKVGKTTYFSDVFKNEGDAGGQYQYLNSQKNKKFNFHFDLARLATTIREFTENKKELQEIDNLLVDWCLNKNGDNFLEMDDDFSLYVMIASTADKCLPKDQIDNKIFRDFLISKEDIPAGEIIY”: the “soluble on expression in E. coli” value was “not soluble”.
